We go through two molecules from patent US12365732 (23ANDME, dated 2025).

This assay concerns the target T1, hCD155 (Table 28) (human, UniProt P15151 21-343, limits assumed).
T1 sequence (looked up): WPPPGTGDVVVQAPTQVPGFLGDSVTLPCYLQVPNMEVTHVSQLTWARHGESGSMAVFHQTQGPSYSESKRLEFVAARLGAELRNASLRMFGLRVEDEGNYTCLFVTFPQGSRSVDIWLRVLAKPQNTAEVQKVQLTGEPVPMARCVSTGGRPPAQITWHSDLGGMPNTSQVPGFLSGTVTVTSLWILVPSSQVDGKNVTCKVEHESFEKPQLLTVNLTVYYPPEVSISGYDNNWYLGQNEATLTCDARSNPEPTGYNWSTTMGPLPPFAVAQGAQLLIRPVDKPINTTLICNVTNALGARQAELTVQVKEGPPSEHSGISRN
The assay can be described thus: SPR 25C, biotin-CD226-His captured, steady state fitting. As for the experimental part: To determine the binding affinity to hu-CD226 and cy-CD226 of mAb1.v7.NGS8, h10G1, hCD155 and anti-hCD226 antibody DX11 (Abcam, cat #Ab33397), SPR measurement with a BIACORE™ 8K instrument was performed. Briefly, a 1:4 dilution of Biotin CAPture Reagent (GE Healthcare) into HBS-EP buffer (0.01 M HEPES pH 7.4, 0.15 M NaCl, 3 mM EDTA, 0.005% Surfactant P20) was applied to the chip at 2 µL/min flow rate. For the kinetics measurements, 5 µg/ml of biotinylated hu-CD226 His tag (Sino biological, cat #10565-H08H) and cy-CD226 His tag (Arco biosystems, cat #DN1-052H9) was captured at 10 µL/min to achieve ~50 response units in the second flow cell (FC2). FC1 was kept as a reference. Next, 3-fold serial dilutions of IgG in HBS-P buffer (0.01 M HEPES pH 7.4, 0.15 M NaCl, 0.005% surfactant P20) from low (1.3 nM) to high (1000 nM) concentration were injected (flow rate: 30 µL/min) at 25° C. The sensorgram was recorded and subject to reference and buffer subtraction before evaluating by BIACORE® 8K Evaluation Software (version 1.1.1.7442). Association rates ($kon$) and dissociation rates ($koff$) were calculated using a simple one-to-one Langmuir binding model. The equilibrium dissociation constant (K_D) value was calculated as the ratio of $koff/kon$. […]

B1: hu-CD226 His tag (receptor, human, UniProt Q15762 19-247, looked up)
chain: EEVLWHTSVPFAENMSLECVYPSMGILTQVEWFKIGTQQDSIAIFSPTHGMVIRKPYAERVYFLNSTMASNNMTLFFRNASEDDVGYYSCSLYTYPQGTWQKVIQVVQSDSFEAAVPSNSHIVSEPGKNVTLTCQPQMTWPVQAVRWEKIQPRQIDLLTYCNLVHGRNFTSKFPRQIVSNCSHGRWSVIVIPDVTVSDSGLYRCYLQASAGENETFVMRLTVAEGKTDN
modifications: biotinylated
Take B1: the Kd came to 161 nM.

B2: cy-CD226 His tag (receptor, cynomolgus monkey)
chain: EEVLWHTSVPFAENMSLECVYPSVGILTQVEWFKIGTEKDSIAIFSPTHGMVIRKPYAERVYFLNSTMASNNMTLFFRNASEDDVGYYSCSLYTYPQGTWQKVIQVVQSDGFEAAVPPNSHIVSEPGKNITLTCQPQMTWPVQEVRWEKVQPHQIDLLTYCDLVHGRNFTSKFPRQIVSNCSHGSWSFIVVPDVTASDSGLYRCHLQASAGENETFVMRLTVAEGQTDN
modifications: biotinylated
On to B2, for which the Kd is 67.5 nM.
